Source: paper doi:10.1101/2022.10.27.514150

Target: Gluc1-E2F4 (human), Q16254
Assay: split reporter
Conditions: remark: other sources report otherwise

Gluc1-E2F4 (human), Q16254, sequence (Q16254 whole entry): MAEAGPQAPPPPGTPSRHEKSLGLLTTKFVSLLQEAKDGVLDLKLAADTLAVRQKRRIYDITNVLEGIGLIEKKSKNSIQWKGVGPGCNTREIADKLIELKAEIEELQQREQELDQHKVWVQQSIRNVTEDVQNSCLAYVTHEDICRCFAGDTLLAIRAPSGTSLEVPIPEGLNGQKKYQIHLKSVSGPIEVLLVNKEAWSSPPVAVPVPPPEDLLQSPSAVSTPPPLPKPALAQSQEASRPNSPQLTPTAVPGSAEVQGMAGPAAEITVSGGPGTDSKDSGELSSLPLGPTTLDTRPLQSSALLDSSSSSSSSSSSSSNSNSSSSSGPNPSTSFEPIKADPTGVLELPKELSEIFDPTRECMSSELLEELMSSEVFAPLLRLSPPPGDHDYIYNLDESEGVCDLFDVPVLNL

normalized luminescence ratio (NLR): > 40
B1: Gluc2-p130, Q08999 1-1139 (natural protein)
chain: MPSGGDQSPPPPPPPPAAAASDEEEEDDGEAEDAAPPAESPTPQIQQRFDELCSRLNMDEAARAEAWDSYRSMSESYTLEGNDLHWLACALYVACRKSVPTVSKGTVEGNYVSLTRILKCSEQSLIEFFNKMKKWEDMANLPPHFRERTERLERNFTVSAVIFKKYEPIFQDIFKYPQEEQPRQQRGRKQRRQPCTVSEIFHFCWVLFIYAKGNFPMISDDLVNSYHLLLCALDLVYGNALQCSNRKELVNPNFKGLSEDFHAKDSKPSSDPPCIIEKLCSLHDGLVLEAKGIKEHFWKPYIRKLYEKKLLKGKEENLTGFLEPGNFGESFKAINKAYEEYVLSVGNLDERIFLGEDAEEEIGTLSRCLNAGSGTETAERVQMKNILQQHFDKSKALRISTPLTGVRYIKENSPCVTPVSTATHSLSRLHTMLTGLRNAPSEKLEQILRTCSRDPTQAIANRLKEMFEIYSQHFQPDEDFSNCAKEIASKHFRFAEMLYYKVLESVIEQEQKRLGDMDLSGILEQDAFHRSLLACCLEVVTFSYKPPGNFPFITEIFDVPLYHFYKVIEVFIRAEDGLCREVVKHLNQIEEQILDHLAWKPESPLWEKIRDNENRVPTCEEVMPPQNLERADEICIAGSPLTPRRVTEVRADTGGLGRSITSPTTLYDRYSSPPASTTRRRLFVENDSPSDGGTPGRMPPQPLVNAVPVQNVSGETVSVTPVPGQTLVTMATATVTANNGQTVTIPVQGIANENGGITFFPVQVNVGGQAQAVTGSIQPLSAQALAGSLSSQQVTGTTLQVPGQVAIQQISPGGQQQKQGQSVTSSSNRPRKTSSLSLFFRKVYHLAAVRLRDLCAKLDISDELRKKIWTCFEFSIIQCPELMMDRHLDQLLMCAIYVMAKVTKEDKSFQNIMRCYRTQPQARSQVYRSVLIKGKRKRRNSGSSDSRSHQNSPTELNKDRTSRDSSPVMRSSSTLPVPQPSSAPPTPTRLTGANSDMEEEERGDLIQFYNNIYIKQIKTFAMKYSQANMDAPPLSPYPFVRTGSPRRIQLSQNHPVYISPHKNETMLSPREKIFYYFSNSPSKRLREINSMIRTGETPTKKRGILLEDGSESPAKRICPENHSALLRRLQDVANDRGSH
